Substitutions are numbered along the chain they refer to. Names may count otherwise.

Experiment [1] concerns the target T1, cynomolgus monkey IgE (in cynomolgus serum, Harlan Sera-Lab Ltd) (cynomolgus monkey).
T1 construct: Serum was the source of IgE; eight serum samples; also called cynomolgus IgE; Cyno 1 to Cyno 8 serum samples
Nature of the experiment: capture ELISA, Test 1, Cyno 7. On the procedure: (§1) Wells were washed once with 150 μL/well wash buffer (0.05% Tween-20, Sigma, Cat. No. P7949/TBS) then blocked with 150 μL/well 1% BSA (Sigma, Cat. No. A7030) in TBS for 2 hours at room temperature. Wells were washed twice with 150 μL wash buffer. 50 μL human (in-house donors) or cynomolgus serum (Harlan Sera-Lab Ltd, Loughborough) was added from neat to at least 1:16 dilution in 1% BSA/0.05% Tween-20/TBS diluent buffer. […] Wells were incubated for 2 hours at 25° C. before washing (3×150 μL wash buffer). […] Wells were incubated for 1 hour at 25° C. then washed (3×150 μL wash buffer). Streptavidin-HRP (Amersham Bioscience, Cat. No. RPN 1231) diluted 1:1000 in diluent buffer was added to all wells and incubated for 45 minutes at room temperature. Wells were washed (3×150 […] wash buffer). 50 μL OPD (Dako, Cat. No. S2045) was added to all wells and the color allowed to develop for 10 minutes before stopping the reaction with 50 μl 0.6M H₂SO₄ and the absorbance measured at 490 nm.

Experiment [2] concerns the target T1, cynomolgus monkey IgE (in cynomolgus …). Nature of the experiment: capture ELISA, Test 1, Cyno 5. The procedure:
as §1

For experiment [3] the target is unchanged. Nature of the experiment: capture ELISA, Test 1, Cyno 3. On the procedure: as §1
On the technique in general: An ELISA detects its analyte on a solid surface through an enzyme-linked reagent.

Experiment [4] shares this target. Nature of the experiment: capture ELISA, Test 1, Cyno 6. On the procedure: as §1
The target is the same in experiment [5]. The experiment can be described thus: capture ELISA, Test 1, Cyno 1. The procedure: as §1
Experiment [6] shares this target. Nature of the experiment: capture ELISA, Test 1, Cyno 2. The procedure:
as §1

Experiment [7] shares this target. Nature of the experiment: capture ELISA, Test 1, Cyno 4. The procedure:
as §1

Experiment [8] addresses T2, human IgG3 (Biodesign, Cat. No. A50186H) (human).
T2 construct: Bought immunoglobulin coated on the plate
The experiment can be described thus: ELISA on coated immunoglobulin. On the procedure:
(§2) Wells were washed 3× with 150 μL wash buffer (0.05% Tween-20 (Sigma, Cat. No. P7949)/PBS) then blocked with 150 μL/well blocking buffer (2.5% BSA (Sigma, Cat. No. A7030)/PBS) for 2 hours at room temperature. Wells were washed 3× with 150 μL wash buffer/well. […] Antibodies were diluted in diluent buffer (PBS/1% BSA/0.05% Tween-20) and this was added to blank control wells (duplicate wells for each secondary antibody used). Antibodies were incubated for 2 hours at room temperature. Wells were washed 3× with 150 μL wash buffer/well. Binding of control antibodies to immunoglobulin was detected with anti-mouse IgG-HRP conjugate (Sigma, Cat. No. A4416) diluted 1:8000 in diluent buffer. 50 μL/well was added to control antibody and blank wells. Wells were incubated for 1 hour at room temperature, then washed 3× with 150 μL wash buffer/well. 50 μl OPD (Dako, Cat. No. […] Wells were incubated for 1 hour at room temperature then washed 3× with 150 μL wash buffer/well. Streptavidin-HRP (Amersham Bioscience, Cat. No. RPN 1231) diluted 1:2000 in diluent buffer was added to all wells and incubated for 45 minutes at room temperature. Wells were washed (3×150 μL wash buffer).

For experiment [9], the target named is T3, human IgA (Sigma, Cat. No. I2636) (human).
T3 chain: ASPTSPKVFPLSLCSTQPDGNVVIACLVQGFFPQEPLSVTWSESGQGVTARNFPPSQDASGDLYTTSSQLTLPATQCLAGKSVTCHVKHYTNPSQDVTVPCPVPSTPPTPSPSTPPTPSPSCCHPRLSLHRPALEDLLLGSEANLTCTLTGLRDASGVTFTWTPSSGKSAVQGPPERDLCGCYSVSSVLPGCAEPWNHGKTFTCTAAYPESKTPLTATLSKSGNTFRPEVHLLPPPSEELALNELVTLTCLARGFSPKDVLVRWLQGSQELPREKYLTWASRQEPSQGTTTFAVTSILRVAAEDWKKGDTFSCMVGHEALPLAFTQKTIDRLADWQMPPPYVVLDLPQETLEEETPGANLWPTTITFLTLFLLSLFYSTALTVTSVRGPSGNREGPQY
The experiment can be described thus: ELISA on coated immunoglobulin. On the procedure:
as §2

In experiment [10] the target is T4, human IgG1 (Biodesign, Cat. No. A50183H) (human).
T4 construct: Bought immunoglobulin coated on the plate
The experiment can be described thus: ELISA on coated immunoglobulin. The procedure:
as §2

The target of experiment [11] is T1, cynomolgus monkey IgE (in cynomolgus …). Nature of the experiment: capture ELISA, Test 2, Cyno 7. The procedure: as §1
Experiment [12] has the same target. Nature of the experiment: capture ELISA, Test 2, Cyno 1. The procedure:
as §1

Experiment [13] has the same target. Nature of the experiment: capture ELISA, Test 2, Cyno 6. The procedure: as §1
For experiment [14] the target is unchanged. The experiment can be described thus: capture ELISA, Test 2, Cyno 8. The procedure: as §1
The target is the same in experiment [15]. Nature of the experiment: capture ELISA, Test 2, Cyno 2. On the procedure: as §1
The target is the same in experiment [16]. The experiment can be described thus: capture ELISA, Test 2, Cyno 4. On the procedure: as §1
Experiment [17] shares this target. Nature of the experiment: capture ELISA, Test 2, Cyno 3. On the procedure: as §1
Experiment [18] has the same target. The experiment can be described thus: capture ELISA, Test 2, Cyno 5. On the procedure: as §1

B1: 6.605.1 (recombinant) (antibody, human IgG2, kappa, V domains shown)
VH: QVHLVQSGAEVKMPGASVKVSCKASGYTFTSYGISWVRQAPGQGLEWMGWISAYNGNTNYAQKLQGRITMTTDTSTSTAYMDLRSLRSDDTAVYYCARDGDYYDPFDYWGQGTLVTVSS
VL: DIQMTQSPSSLSASVGDRVTITCRTSQSISNWLNWYQQKPGKAPKLLIYGASTLKSGVPSRFSGSESGTDFTLTISSLQPEDFATYYCQQSYSTPPTFGQGTKVEIKR
notes: Human IgG2 kappa; leader omitted; also called recombinant 6.605.1
Consider B1, for which the IgE concentration detected came out at 0 ng/mL in experiment [1]; 140 ng/mL in [2]; 107 ng/mL in [3]; 0 ng/mL in experiment [4]; 120 ng/mL in experiment [5]; 91 ng/mL in experiment [6]. In experiment [7], this molecule came in with an IgE concentration detected of 0 ng/mL. In addition, the values for the A290 nm in experiment [8], in experiment [9] and in experiment [10] were 0.05 A290 nm, 0.04 A290 nm and 0.07 A290 nm, respectively.

B2: 6.605.1 Hc-H3Q, M13K, D82E Lc-T25A, T53S (antibody, human IgG2, kappa, V domains shown)
VH: B1 VH with H3Q, M13K, D82E
VL: B1 VL with T25A, T53S
notes: Human IgG2 kappa; leader omitted; also called 6.605.1 (H3Q, M13K, D82E-T25A, T53S); 6.605.1 QKE/AS
For B2, the IgE concentration detected in experiment [1] stood at 0 ng/mL; in [2] it was 173 ng/mL; in experiment [3], 122 ng/mL; in experiment [5], 133 ng/mL; in experiment [6] it was 103 ng/mL; in [7], 0 ng/mL. Moreover, the A290 nm in experiment [8] came out at 0.04 A290 nm; in experiment [9], 0.04 A290 nm; in [10], 0.07 A290 nm.

B3: 5.396.1 (recombinant) (antibody, human IgG2, kappa, V domains shown)
VH: QVQLQQWGAGLLKPSETLSLTCAVYGGSFSGYYWSWIRQPPGKGLEWIGEIHHSGSTNYNPSLKSRVTISVDTSKNQFSLKLSSVTAADTAVYYCARDNWNDSFYYYYGMDVWGQGTTVTVSS
VL: DIQMTQSPSSLSASVGDRVTITCRASQGISNHLAWFQQKPGKAPKSLIYAASSLQSGVPSKFSGSGSGTDFTLTISSLQPEDFATYYCQQYNRHPFTFGPGTKVDIKR
notes: Fully human IgG2 kappa, expressed in 293 Freestyle cells; also called recombinant 5.396.1
Take B3: the IgE concentration detected worked out at 0 ng/mL in experiment [1]; 37 ng/mL in experiment [2]; 3 ng/mL in [4]; 30 ng/mL in [5]; 0 ng/mL in experiment [6]; 0 ng/mL in experiment [7]. In addition, the A290 nm in experiment [8] came to 0.05 A290 nm; in [9], 0.04 A290 nm; in experiment [10], 0.07 A290 nm.

B4: 5.396.1 Hc-S103N Lc-K61R (antibody, human IgG2, kappa, V domains shown)
VH: B3 VH with S103N
VL: B3 VL with K61R
notes: Human IgG2 kappa; leader omitted; also called 5.396.1 (S103N/K61R); 5.396.1 S103N/K61R
Regarding B4, the IgE concentration detected was 0 ng/mL in experiment [11]; 57 ng/mL in experiment [12]; 0 ng/mL in [1]; 57 ng/mL in experiment [2]; 0 ng/mL in [13]; 39 ng/mL in experiment [3]. The IgE concentration detected in experiment [14] was 0 ng/mL; in experiment [4] it was 0 ng/mL; in experiment [15], 39 ng/mL; in [5] it was 41 ng/mL; in experiment [16] it was 0 ng/mL; in experiment [6], 0 ng/mL. Besides, the IgE concentration detected in experiment [17] amounted to 53 ng/mL; in experiment [7], 0 ng/mL; in [18], 102 ng/mL. The A290 nm in [8] worked out at 0.05 A290 nm; in experiment [9] it was 0.04 A290 nm; in [10], 0.08 A290 nm.

These data come from patent US20090117124A1 (Pfizer, published 2009).
